The text below walks through data of PMC3989047, “Purification and characterization of tyrosinase from walnut leaves (Juglans regia)” (Phytochemistry, 2014).

Substrate in data set [1]: N[C@@H](Cc1ccc(O)c(O)c1)C(=O)O
The experiment in a line: purified protein. The settings on record: 50 mM sodium phosphate pH 6.5, five substrate concentrations 0.29-1.96 mM. Type of data set: biochemical, Juglans regia.

Substrate in data set [2]: N[C@@H](Cc1ccc(O)cc1)C(=O)O
The experiment in a line: purified protein. In kind it is biochemical, Juglans regia. To be noted: 50 mM sodium phosphate pH 6.5, five substrate concentrations 0.29-1.96 mM.

B1: jrPPO1(Asp101 → Arg445), Juglans regia tyrosinase (form 2) (Juglans regia) (protein)
chain: DPVSAPELTLCSEADLPAGALPVNCCPPTSKKIKDFVLPSQNTPLRVRPAAHLVDNDYIAKYNKGIELMKSLPADDPRSFTQQANVHCAYCDGAYTQVGFPDLSLQVHECWLFFPFHRYYVYFFEKILGKLIGDPTFALPFWNWDSPPGMQLPSLYAVSNSAIYDPLRNANHQPPTIIDLDYGETSESTTTTDQVPSNLKIMYRQMVSGAKNPTLFFGSPYRAGDEPDPGAGTIESTPHNNIHLWTGDDTQPNIENMGNFYSAGRDPIFFAHHSNVDRMWTIWKTLGGKRKDITDPDWLNSSFFFYDENADPVRVKVKDCVDNTKLRYVYQDVEIPWLKTKPTPR
notes: native, purified from walnut leaves; 39,047 Da
Usually Km stands for the substrate concentration at which the rate is half of its maximum. The term Vmax denotes the rate approached at saturating substrate. By kcat is commonly meant the number of substrate molecules converted per active site and unit of time at saturation. The kcat/Km is the second-order rate constant that governs catalysis at low substrate concentration. For the protein B1, in “purified protein [1]”, the Km is recorded as 8.8 mM, the maximum rate (Vmax) turned out to be 60 µM/min, the Vmax/Km is 0.01 min⁻¹ and the catalytic constant (kcat) is 199 s⁻¹. Besides, the specificity constant (kcat/Km) in “purified protein [1]” turned out to be 22800 M⁻¹ s⁻¹. Besides, in the data set “purified protein [2]”, the Km came out at 1.9 mM, the Vmax worked out at 80 µM/min, the Vmax/Km is 0.04 min⁻¹ and the catalytic constant (kcat) amounted to 20.8 s⁻¹. For the same protein, the kcat/Km in “purified protein [2]” turned out to be 10900 M⁻¹ s⁻¹.
